Substrate in this series: O=[N+]([O-])c1ccc(O[C@@H]2O[C@@H](CO)[C@H](O)[C@H]2O)cc1
As to the kind of experiment: purified protein. The class given is biochemical, Thermothielavioides terrestris. As to conditions: standard conditions, sodium acetate buffer, optimum pH 5.0, 70 °C.

B1: TtABF51A (Thermothielavioides terrestris NRRL 8126) (protein)
chain: AVTLSVAKSGGNATSPYMYGIMFEDISHSGDGGLYAELIQNRAFQNGTLDAWSAVGGATLALDTSTPLSQALPRSVKVTGGQHTAGLKNSGFWGFDVKKSKKYTGSFYSYGEYSGRFTVSLVSNTTSEIFATTTVKSKSVAGRWTQHTFELRPTKDAPDISNSFVLEYKPTPHTELKFNLISLFPPTYKNRANGMRPELMEKLKELNPTYIRCPGGNNVEGNYAGNYWNWSATVGPLKDRPGRPGTWGYYNTDGLGLVEYMHWAEDLGMDVVLAVPAGLYLDGEVVSEADLAPFVQDALNELEFLMGDVSTPYGALRAKLGYPKPWKIKFVEIGNEDNLWGGLDSYKGYRFRMFYDAIKAKYPDIFIFSSTAEYMYKQSGRDYHEYTRPDYFVSQFGMFDNWTAGNPIMIGEFASIQNNTGKLEDTDWNAPKNPWSTWIGSVAEAVFLLGAERNSDRVWGVSFAPLLQNLNSYQWTPDLISFTADPADTTVSVSYPILSLFAKHPLTHTLPATAANGTSFGPAYWVAGRNDAAGTYLLKAAVYNSTGGAEVPFRVGFDGLSRGAPATLTVLTAPGGPFAHNTPANKNAVKTAVTQLRAGEGGVLEFSLPDLSVAVLEAKW
notes: full length 640 aa; predicted 20-aa signal peptide removed; C-terminal 6xHis; predicted N-terminal CBM4_9 kept; expressed in Trichoderma reesei D-86271
Take B1: the Km (in general, the substrate concentration at which the rate is half of its maximum) was determined as 0.30 ± 0.02 mM; the Vmax (usually the top rate of the reaction or transport when substrate is in excess) worked out at 108 µmol/min/mg; the turnover number (kcat) (usually the maximal rate divided by the concentration of active sites) came to 123 ± 2.91 s⁻¹.

The record behind these values is publication PMC7502447, “Characterization and functional analysis of two novel thermotolerant α-L-arabinofuranosidases belonging to glycoside hydrolase family 51 from Thielavia terrestris and family 62 from Eupenicillium parvum” (Applied Microbiology and Biotechnology, 2020).
